Reference: paper PMC2924388, “Conformational Adaptation of Asian Macaque TRIMCyp Directs Lineage Specific Antiviral Activity” (PLoS Pathogens, 2010)

Key:
[1] = target: T1, CypA domain of Macaca fascicularis TRIMCyp2 (Mafa TRIMCyp2) (Macaca fascicularis); experiment: ITC; MicroCal ITC200; cyclophilin (typical concentration 1.4 mM) in the syringe, capsid (typical concentration 120 µM) in the cell; 50 mM KPO4 pH 7.4, 100 mM NaCl, 1 mM DTT; 15°C; one-state model; conditions: both partners purified
T1 construct: Cyp 54, 66, 69 and 143 are TRIMCyp 357, 369, 372 and 446. numbers count on: CypA; Natural allele; also called Mafa TCyp2; Mafa Cyp; source: E. coli BL21 (DE3), purified (Ni-NTA, gel filtration)

[2] = target: T2, CypA domain of Mafa TRIMCyp2 with Cyp K143E (K446E in TRIMCyp) (Macaca fascicularis); experiment: as above; conditions: both partners purified
T2 construct: As m1 but with glutamate at Cyp 143 (the residue of CypA and of Mamu TRIMCyp); also called Mafa TCyp2 K143E; K143E mutant; source: E. coli BL21 (DE3), purified (Ni-NTA, gel filtration), as per the wild-type protein

B1: FIV capsid N-terminal domain (domain or fragment)
chain: PIQTVNGVPQYVALDPKMVSIFMEKAREGLGGEEVQLWFTAFSANLTPTDMATLIMAAPGCAADKEILDESLKQLTAEYDRTHPPDAPRPLPYFTAAEIMGIGLTQEQQAEARFAPARMQCRAWYLEALGKLAAIKAKS
modifications: Unmodified wild-type domain. Strain and limits are not printed: the Petaluma isolate is assumed. The start is the capsid p24 N-terminus (136); the end is set by homology to HIV-1 CA-N 1-146 (pdb 2X83)
Kd [1]: 27 µM
Kd [2]: 15 µM
